In experiment [1] the target is T1, EpCAM (Homo sapiens, UniProt P16422).
T1 sequence (P16422 24-314): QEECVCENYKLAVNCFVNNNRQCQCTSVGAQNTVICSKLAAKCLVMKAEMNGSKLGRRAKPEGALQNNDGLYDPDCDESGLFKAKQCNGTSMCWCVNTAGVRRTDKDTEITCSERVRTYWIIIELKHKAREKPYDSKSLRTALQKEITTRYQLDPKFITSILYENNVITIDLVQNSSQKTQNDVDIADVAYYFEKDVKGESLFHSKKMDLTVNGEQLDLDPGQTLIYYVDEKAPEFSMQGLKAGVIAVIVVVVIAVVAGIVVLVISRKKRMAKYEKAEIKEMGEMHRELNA
Put plainly: Antibody binding to EpCAM wild-type and mutants expressed in HEK293T cells (immunofluorescence, flow cytometry, cellular ELISA). The settings on record: conclusion from deletion and point mutants. As to the method:
FIGS. 8A to 8G. EpAb2-6 binds to both EGF-like domain I and II of EpCAM. HEK293T cells were transfected with full length or EGF like-domain deletion mutant EpCAM-V5. Antibody binding was assessed by (FIG. 8A) Western blotting, (FIG. 8B) flow cytometry, and (FIG. 8C) immunofluorescence. (FIG. 8D) EpCAM mutants were constructed with amino acid substitutions in the EGF-I (Y32A) and EGF-II (L94A, Y95A, or D96A) domains. EpCAM wild-type and mutant proteins were expressed in HEK293T cells. Binding of MT201, EpAb2-6 and EpAb23-1 to EpCAM wild-type and mutants were evaluated by (FIG. 8E) immunofluorescence, (FIG. 8F) flow cytometry, and (FIG. 8G) cellular ELISA.
A previous study identified the binding epitope of EpAb2-6 antibody as the LYD motif in EpCAM, which corresponds to amino acid residues 94-96; in particular, residue 95 (Y95) plays a major role in EpAb2-6 binding (Liao et al., 2015). […] Therefore, we wanted to determine whether the antibody binds to EpCAM at both EGF-like domains of EpEX (FIG. 8A, FIG. 8B, FIG. 8C). To confirm that EpAb2-6 recognizes the LYD motif in EpCAM, we constructed cDNA sequences encoding the first (aa 27-59; EGF-I domain) and second (aa 66-135; EGF-II/TY domain) EGF-like repeats of EpCAM. PCR-based site-directed mutagenesis was then used to introduce mutations into each domain (FIG. 8D). The reactivity of EpAb2-6 antibody toward these EpCAM mutants was evaluated by immunofluorescence (FIG. 8E), flow cytometry (FIG. 8F), and cellular ELISA (FIG. 8G).

For experiment [2], the target named is T2, EpCAM and HGFR (Homo sapiens, UniProt P16422).
T2 construct: as detected by IP of endogenous proteins in HCT116 cells; endogenous in cells; host or cells: HCT116
T2 sequence (P16422 24-314): T1 sequence (P16422 24-314)
In words: Immunoprecipitation of endogenous EpCAM and HGFR in HCT116 cells. The format is cell-based. The settings on record: 6 h treatment, IP of endogenous proteins, FIG. 6E. On the procedure:
FIGS. 6A to 6J. EpAb2-6 inhibits EpCAM and HGFR signaling and promotes active β-catenin and Snail protein degradation via activating GSK3β. (FIG. 6A) HCT116 cells were treated with 10 μg/ml control IgG (normal mouse IgG, NMIgG) or mouse EpAb2-6 (EpAb2-6) for 16 h, followed by treatment with EpEX-His (50 nM) for 15 min. Levels of phosphorylated HGFR, AKT, FAK, GSK3β, ERK, ADAM17, and presenilin 2 were examined by Western blotting. (FIG. 6B) HCT116 cells were treated with 10 μg/ml control IgG or mouse EpAb2-6 for 16 h, followed by treatment without or with HGF (0.5 nM) for 15 min. Levels of phosphorylated HGFR, AKT, and ERK were examined by Western blotting. HCT116 cells were treated with mouse EpAb2-6 (10 μg/ml) and HGF (0.5 nM). […] (FIG. 6D) Cell invasion was assessed by a Transwell assay with matrigel after 24 h. […] (FIG. 6F) EpEX-His (2 μg/ml) co-treated with 1 μg IgG or EpAb2-6 was added to HGFR-Fc-coated (1 μg/ml) ELISA plates and detected by TMB colorimetric peroxidase assay. (FIG. 6G) EMT associated protein levels were detected by Western blotting in HCT116 cells treated with NMIgG or EpAb2-6 for 24 h. (FIG. 6H) Protein expression was analyzed by Western blotting in HCT116 cells after treatment with EpAb2-6 and 2 μM GSK3β inhibitor (BIO) for 24 h. Quantification of the normalized protein expression in the bottom panel. […]

These results are taken from patent publication US20250269018A1, “COMBINED CANCER THERAPY WITH AN EPITHELIAL CELL ADHESION MOLECULE (EPCAM) INHIBITOR AND A HEPATOCYTE GROWTH FACTOR RECEPTOR (HGFR) INHIBITOR” (ACADEMIA SINICA, priority 2021, published 2025).

B1: EpAb2-6: anti-EpCAM neutralizing monoclonal antibody targeting EpEX; VH SEQ ID NO: 15, VL SEQ ID NO: 16 (antibody, listed as Homo sapiens, V domains shown)
VH: VKLQESGPELKKPGETVKISCKASGYTFTDYSMHWVKQAPGKGLKWMGWINTETGEPTYADDFKGRFAFSLETSASTAYLQINNLKNEDTATYFCARTAVYWGQGTTVTVSS
VL: DIQMTQSPSSLSASLGERVSLTCRASQEISVSLSWLQQEPDGTIKRLIYATSTLDSGVPKRFSGSRSGSDYSLTISSLESEDFVDYYCLQYASYPWTFGGGTKLEIKRADAAPTVS
For B1, the “EpEX domains and residues bound” value in experiment [1] was “binds to the EGF-I and EGF-II domains of EpEX, respectively targeting amino acid residues Y32 and Y95”. In addition, the “association between EpCAM and HGFR” value in experiment [2] was “decreased the association between EpCAM and HGFR”.
